Measurements from patent US8420776B2, “Ube2G2 binding domain in the ubiquitin ligase gp78 and methods of use thereof” (The United States of America, as Represented by the …, priority 2004, dated 2013).

T1: Myc-Ube2G2 (Mus musculus, UniProt P60605)
T1 construct: expressed in transfected cells; host or cells: HEK 293T
T1 sequence (P60605 1-165): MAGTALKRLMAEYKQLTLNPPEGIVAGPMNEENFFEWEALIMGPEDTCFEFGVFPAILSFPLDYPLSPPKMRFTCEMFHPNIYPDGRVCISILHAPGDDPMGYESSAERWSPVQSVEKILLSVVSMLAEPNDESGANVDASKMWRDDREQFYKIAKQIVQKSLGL

B1: wild type gp78: full-length wild type human gp78 ubiquitin ligase expressed in cells (protein, listed as Homo sapiens)
chain: MPLLFLERFPWPSLRTYTGLSGLALLGTIISAYRALSQPEAGPGEPDQLTASLQPEPPAPARPSAGGPRARDVAQYLLSDSLFVWVLVNTACCVLMLVAKLIQCIVFGPLRVSERQHLKDKFWNFIFYKFIFIFGVLNVQTVEEVVMWCLWFAGLVFLHLMVQLCKDRFEYLSFSPTTPMSSHGRVLSLLVAMLLSCCGLAAVCSITGYTHGMHTLAFMAAESLLVTVRTAHVILRYVIHLWDLNHEGTWEGKGTYVYYTDFVMELTLLSLDLMHHIHMLLFGNIWLSMASLVIFMQLRYLFHEVQRRIRRHKNYLRVVGNMEARFAVATPEELAVNNDDCAICWDSMQAARKLPCGHLFHNSCLRSWLEQDTSCPTCRMSLNIADNNRVREEHQGENLDENLVPVAAAEGRPRLNQHNHFFHFDGSRIASWLPSFSVEVMHTTNILGITQASNSQLNAMAHQIQEMFPQVPYHLVLQDLQLTRSVEITTDNILEGRIQVPFPTQRSDSIRPALNSPVERPSSDQEEGETSAQTERVPLDLSPRLEETLDFGEVEVEPSEVEDFEARGSRFSKSADERQRMLVQRKDELLQQARKRFLNKSSEDDAASESFLPLEGASSDPVTLRRRMLAAAAERRLQKQQTS
B2: gp78611: gp78 truncated after residue 611 of SEQ ID NO:2 (protein, listed as Homo sapiens)
chain: MPLLFLERFPWPSLRTYTGLSGLALLGTIISAYRALSQPEAGPGEPDQLTASLQPEPPAPARPSAGGPRARDVAQYLLSDSLFVWVLVNTACCVLMLVAKLIQCIVFGPLRVSERQHLKDKFWNFIFYKFIFIFGVLNVQTVEEVVMWCLWFAGLVFLHLMVQLCKDRFEYLSFSPTTPMSSHGRVLSLLVAMLLSCCGLAAVCSITGYTHGMHTLAFMAAESLLVTVRTAHVILRYVIHLWDLNHEGTWEGKGTYVYYTDFVMELTLLSLDLMHHIHMLLFGNIWLSMASLVIFMQLRYLFHEVQRRIRRHKNYLRVVGNMEARFAVATPEELAVNNDDCAICWDSMQAARKLPCGHLFHNSCLRSWLEQDTSCPTCRMSLNIADNNRVREEHQGENLDENLVPVAAAEGRPRLNQHNHFFHFDGSRIASWLPSFSVEVMHTTNILGITQASNSQLNAMAHQIQEMFPQVPYHLVLQDLQLTRSVEITTDNILEGRIQVPFPTQRSDSIRPALNSPVERPSSDQEEGETSAQTERVPLDLSPRLEETLDFGEVEVEPSEVEDFEARGSRFSKSADERQRMLVQRKDELLQQARKRFLNKSSEDDAASESF
B3: gp78595: gp78 truncated after amino acid 595 of SEQ ID NO:2 (protein, listed as Homo sapiens)
chain: MPLLFLERFPWPSLRTYTGLSGLALLGTIISAYRALSQPEAGPGEPDQLTASLQPEPPAPARPSAGGPRARDVAQYLLSDSLFVWVLVNTACCVLMLVAKLIQCIVFGPLRVSERQHLKDKFWNFIFYKFIFIFGVLNVQTVEEVVMWCLWFAGLVFLHLMVQLCKDRFEYLSFSPTTPMSSHGRVLSLLVAMLLSCCGLAAVCSITGYTHGMHTLAFMAAESLLVTVRTAHVILRYVIHLWDLNHEGTWEGKGTYVYYTDFVMELTLLSLDLMHHIHMLLFGNIWLSMASLVIFMQLRYLFHEVQRRIRRHKNYLRVVGNMEARFAVATPEELAVNNDDCAICWDSMQAARKLPCGHLFHNSCLRSWLEQDTSCPTCRMSLNIADNNRVREEHQGENLDENLVPVAAAEGRPRLNQHNHFFHFDGSRIASWLPSFSVEVMHTTNILGITQASNSQLNAMAHQIQEMFPQVPYHLVLQDLQLTRSVEITTDNILEGRIQVPFPTQRSDSIRPALNSPVERPSSDQEEGETSAQTERVPLDLSPRLEETLDFGEVEVEPSEVEDFEARGSRFSKSADERQRMLVQRKDELLQQARK

Columns and labels:
Type in all cases: cell-based
[1] = tested on: gp78; assay: gp78 ubiquitylation in transfected cells (IP anti-gp78, IB anti-ubiquitin); settings: 50 μM MG132 eight hours
Method: FIGS. 20A-20E depict the requirement of multiple domains of gp78 to target itself and a heterologous ERAD substrate. (FIG. 20A) Cells were co-transfected with the indicated forms of full length gp78 together with CD3-δ and lysates analyzed by IB. (B) Cells were transfected with wild type and mutant gp78 plasmids as indicated. Samples were treated with 50 μM MG132 for eight hours, lysates IP'ed with anti-gp78 followed by […] with either antiubiquitin (upper) or anti-gp78 (lower). Arrow in upper panel indicates migration of unmodified gp78. (FIGS. 20C and 20D) Cells were co-transfected with HA-CD3-δ and wild type (WT) or mutant forms of gp78. Cells were treated with cycloheximide (CHX) as indicated. (FIG. 20E) Graphic representation of CD3-δ levels from FIGS. 20C and 20D (fall length gp78 transfections only), Cue-m1, 2 is the average of data shown in FIGS. 20C and 20D.
Transfections of HT1080, NIH 3T3 and HEK 293T cells were carried out ˜24 hr after plating using Polyfect (Qiagen, Valencia, Calif.) and cells harvested after ˜48 hr. J558 cells were transfected by electroporation using Bio-rad GENE pulser II at settings of 250 v, 950uF. Vector without insert was used to equalize total plasmid. In most experiments 0.15 μg of pEGFP-C1 served as an internal control. For experiments not involving immunoprecipitation, 6×10^5 cells were plated in 6 well plates and cell lysis was with Mammalian Protein Extraction Reagent (Pierce). For immunoprecipitation, 2.4×10^6 cells were seeded in 100 mm dishes and cells were lysed in RIPA buffer (1×PBS, 1% Nonidet P40. 0.5% sodium deoxycholate, 0.1% SDS). […] Supernatants were analyzed after a 10,000×g centrifugation using standard techniques for immunoprecipitation, SDS-PAGE, immunoblotting and ECL. […]
gp78 is degraded in a proteasome-dependent manner, and deletion of the entire cytoplasmic domain results in its stabilization. […] To determine the significance of the RING finger, Cue domain and Ube2G2 binding site on gp78 stability, mutations of each were evaluated within full-length gp78. […]

[2] = tested on: ERAD substrate CD3-δ; assay: CD3-δ level in co-transfected cells by immunoblotting; settings: co-transfection with CD3-δ; immunoblot
Method: (§1) Transfections of HT1080, NIH 3T3 and HEK 293T cells were carried out ˜24 hr after plating using Polyfect (Qiagen, Valencia, Calif.) and cells harvested after ˜48 hr. J558 cells were transfected by electroporation using Bio-rad GENE pulser II at settings of 250 v, 950uF. Vector without insert was used to equalize total plasmid. In most experiments 0.15 μg of pEGFP-C1 served as an internal control. For experiments not involving immunoprecipitation, 6×10^5 cells were plated in 6 well plates and cell lysis was with Mammalian Protein Extraction Reagent (Pierce). For immunoprecipitation, 2.4×10^6 cells were seeded in 100 mm dishes and cells were lysed in RIPA buffer (1×PBS, 1% Nonidet P40. 0.5% sodium deoxycholate, 0.1% SDS). Lysis buffers were supplemented with Protease Inhibitor Cocktail (Sigma) and 10 mM iodoacetamide. Supernatants were analyzed after a 10,000×g centrifugation using standard techniques for immunoprecipitation, SDS-PAGE, immunoblotting and ECL. Treatment of cells with MG132 (Sigma) was at 50 μM for eight hr. Cycloheximnide was used at 50 μg/ml. All cells were collected at the end of the six hr chase.
FIG. 7 depicts the stabilization of CD3-δ protein in cells transfected with the G2BD, but not with the G2BD with amino acids 579-584 (of SEQ ID NO:2) mutated. HEK 293T cells were transfected with the ERAD substrate CD3-δ along with the indicated GFP fusions of gp78. The left and right sides are two separate experiments.
To test this, GFP fusions of either a minimal E2 binding domain (GFP-574-611) or a more extended region that includes the C-terminus of gp78 (GFP-574-643) were evaluated (FIG. 21A). […] To assess this further, the C-terminal region of gp78 was fused to the eight amino acid Flag tag. […] Mdm2 is a RING finger E3 for both itself and p53 that is neither an ERAD substrate nor known to utilize Ube2G2 as an E2. […] To establish with certainty that the effect observed with expression of the Ube2G2 binding site is a consequence of binding endogenous E2, and not due to other unanticipated effects, cells were co-transfected with increasing amounts of Ube2G2 (FIG. 21C, lanes 3 and 4). […] These findings clearly establish that the isolated E2 binding site has the potential to markedly alter ERAD of CD3-δ. To ensure the effect observed was not peculiar to one substrate, TCR-α was evaluated (FIG. 21D).

[3] = tested on: ERAD substrate CD3-δ; assay: Cycloheximide chase of CD3-δ in co-transfected cells; settings: co-transfection with HA-CD3-δ
Method: as §1
(§2) To evaluate protein turnover in more detail, cycloheximide chase experiments were performed (FIGS. 20C and 20D). […] In agreement with FIG. 20A, CD3-δ degradation was accelerated with wild type gp78 (FIGS. 20C and 20D middle panels; effects of full-length forms of gp78 on CD3-δ from FIGS. 20C and 20D are quantified in FIG. 20E).

[4] = tested on: gp78; assay: Cycloheximide chase of gp78 in transfected cells; settings: compared to wild type gp78
Method: as §1, §2

[5] = target: T1, Myc-Ube2G2; assay: Co-immunoprecipitation with co-expressed Myc-Ube2G2 in cells; settings: anti-Myc IP, anti-gp78 IB; MG132 8 hr
Method: as §1
FIG. 5 depicts the results of immunoprecipitation of Ube2G2 (MmUbc7) from HEK 293T cells co-transfected with a plasmid encoding myc-tagged MmUbc7/Ube2G2 together with s plasmid encoding various forms of gp78. HEK 293T cells were transfected with a plasmid encoding myc-tagged MmUbc7/Ube2G2 together with plasmids encoding various forms of gp78. After 48 hours, cells were harvested and co-immuntoprecipitated with an anti-Myc tage. Anti-gp78 was used for detection. “R2M” indicates a mutation of two crucial residues in the RING finger. “T” indicates C terminal truncations at the indicated amino acids. ΔB is the mutation indicated above in FIG. 4 in the context of the full length gp78 and “Cue12M” indicates mutations in the Cue domain of gp78.
To confirm the significance of the Ube2G2 binding site in cells, a variety of mutations and truncations of full-length gp78 were tested for binding of co-expressed Myc-Ube2G2 (FIG. 19A). Cells were treated with the proteasome inhibitor MG132 in an attempt to equalize levels of the various forms of gp78.

Molecule | gp78 ubiquitylation (ubiquitin immunoreactivity) [1] | effect on CD3-δ level (stabilization) [2] | effect on CD3-δ degradation [3] | gp78 stability [4] | E2 association of full-length gp78 forms with co-expressed Myc-Ube2G2 [5]
B1 | ubiquitylation was observed | decreased CD3-δ levels | accelerated | – | –
B2 | – | – | enhanced loss of CD3-δ | did not stabilize gp78 | retained E2 binding
B3 | – | – | minimal stabilization of CD3-δ | stabilized gp78 | loss of E2 binding
